Patent US20200255543A1 (ROCKEFELLER UNIVERSITY, published 2020)

What was measured:
[1] = molecular target: T1, recombinant human MERTK (human, UniProt Q12866 21-505, limits assumed); experiment: biolayer interferometry, M6 loaded on AMQ sensor at 1 ug/mL, hMer in solution at 0.625 nM, local 1:1 fit
T1 construct: Analyte in solution in biolayer interferometry; also called hMer
T1 sequence: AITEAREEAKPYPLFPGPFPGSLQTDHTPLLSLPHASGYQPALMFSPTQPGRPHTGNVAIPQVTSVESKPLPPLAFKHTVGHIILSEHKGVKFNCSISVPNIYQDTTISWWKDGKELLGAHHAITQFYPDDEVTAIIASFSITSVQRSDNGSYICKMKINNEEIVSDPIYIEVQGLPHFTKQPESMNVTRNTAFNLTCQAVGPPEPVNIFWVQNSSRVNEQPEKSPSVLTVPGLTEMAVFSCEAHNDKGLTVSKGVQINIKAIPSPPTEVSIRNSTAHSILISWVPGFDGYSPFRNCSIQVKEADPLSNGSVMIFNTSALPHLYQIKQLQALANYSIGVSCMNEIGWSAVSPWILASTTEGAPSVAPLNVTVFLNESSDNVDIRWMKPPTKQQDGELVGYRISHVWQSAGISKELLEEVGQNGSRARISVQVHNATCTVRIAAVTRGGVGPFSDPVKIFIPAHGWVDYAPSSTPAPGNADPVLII
Procedure: (§1) FIG. 11: M6 binds to MERTK with high affinity. M6 binds to human MERTK with high affinity. A diagram showing antibody binding kinetics for M6 (Mer-M6) against human MERTK (hMer) using biolayer interferometry. Purified M6 was loaded on an AMQ sensor at a concentration of 1 microgram/mL to test binding against analytes in solution. All analytes were prepared at 5 nM with a 2-fold dilution series for a total of 7 concentrations. Kinetic fits were calculated using a 1:1 model, with Local fits for each concentration as well as an overall Global fit.

[2] = molecular target: T1, recombinant human MERTK; experiment: biolayer interferometry, M6 loaded on AMQ sensor at 1 ug/mL, hMer in solution at 0.1563 nM, local 1:1 fit
Procedure: as §1

[3] = molecular target: T1, recombinant human MERTK; experiment: biolayer interferometry, M6 loaded on AMQ sensor at 1 ug/mL, hMer in solution at 5 nM, local 1:1 fit
Procedure: as §1

[4] = molecular target: T1, recombinant human MERTK; experiment: biolayer interferometry, M6 loaded on AMQ sensor, hMer analyte from 5 nM in 2-fold dilutions, 1:1 model, global fit
Procedure: as §1

[5] = molecular target: T1, recombinant human MERTK; experiment: biolayer interferometry, M6 loaded on AMQ sensor at 1 ug/mL, hMer in solution at 2.5 nM, local 1:1 fit
Procedure: as §1

[6] = molecular target: T1, recombinant human MERTK; experiment: biolayer interferometry, M6 loaded on AMQ sensor at 1 ug/mL, hMer in solution at 0.0781 nM, local 1:1 fit
Procedure: as §1

[7] = molecular target: T1, recombinant human MERTK; experiment: biolayer interferometry, M6 loaded on AMQ sensor at 1 ug/mL, hMer in solution at 1.25 nM, local 1:1 fit
Procedure: as §1

[8] = molecular target: T1, recombinant human MERTK; experiment: biolayer interferometry, M6 loaded on AMQ sensor at 1 ug/mL, hMer in solution at 0.3125 nM, local 1:1 fit
Procedure: as §1

[9] = molecular target: T1, recombinant human MERTK; experiment: biolayer interferometry, M6 loaded on AMQ sensor at 1 ug/mL, hMer in solution at 5 to 0.0781 nM, global 1:1 fit
Procedure: as §1

Kd [1]: 0.0131 pM | koff [1]: 7.27e-08 s⁻¹ | kon [1]: 5.57e+06 M⁻¹ s⁻¹ | Kd [2]: 0.0652 pM | koff [2]: 9.22e-07 s⁻¹ | kon [2]: 1.41e+07 M⁻¹ s⁻¹ | Kd [3]: 0.634 pM | koff [3]: 1.5e-06 s⁻¹ | kon [3]: 2.37e+06 M⁻¹ s⁻¹ | Kd [4]: 4.6 pM | Kd [5]: 2.09 pM | koff [5]: 4.46e-06 s⁻¹ | kon [5]: 2.13e+06 M⁻¹ s⁻¹ | Kd [6]: 0.823 pM | koff [6]: 2.49e-05 s⁻¹ | kon [6]: 3.03e+07 M⁻¹ s⁻¹ | Kd [7]: 0.0498 nM | koff [7]: 0.000156 s⁻¹ | kon [7]: 3.12e+06 M⁻¹ s⁻¹ | Kd [8]: 0.00312 pM | koff [8]: 3.3e-08 s⁻¹ | kon [8]: 1.06e+07 M⁻¹ s⁻¹ | koff [9]: 9.55e-06 s⁻¹ | kon [9]: 2.07e+06 M⁻¹ s⁻¹
B1: monoclonal antibody M6 (antibody, V domains shown)
VH: QVKLEESGPELKKPGETVKISCKASGYTFTNYGMNWVKQAPGKGLKWMGWINTYTGEPTYADDFKGRFVFSLETSASTAYLQINNLKNEDMATYFCARKSTVVSRYFDVWGAGTTVTVSS
VL: DIVLTQTHKFMSTSVGDRVSITCKASQDVGDAVTWCQQKPGQPPKLLIYWASTRHTGVPDRFTGSGSGTDFTLTINNVQSEDLADYFCQQYRSYPLTFGAGTKLELKR
notes: Mouse hybridoma monoclonal antibody; Hybridoma supernatant was used in the ELISA screen, purified antibody in biolayer interferometry; also called Mer-M6
